The numbers were not newly measured in PMC3981547, which cites them from elsewhere.

Data set [1] deals with IL-2Rβ/γc (Homo sapiens) (UniProt P14784).
The target of data set [2] is IL-2Rα (Homo sapiens) (UniProt P01589).
For data set [3], the target named is γc (Homo sapiens) (UniProt P31785).
Data set [4] addresses IL-2Rβ (Homo sapiens) (UniProt P14784).
The target in data set [5] is IL-4Rα ECD (Homo sapiens) (UniProt P24394). The experiment in a line: ITC.
Data set [6] addresses IL-13Rα1 (Homo sapiens) (UniProt P78552).
UniProt P78552, sequence (P78552 22-343): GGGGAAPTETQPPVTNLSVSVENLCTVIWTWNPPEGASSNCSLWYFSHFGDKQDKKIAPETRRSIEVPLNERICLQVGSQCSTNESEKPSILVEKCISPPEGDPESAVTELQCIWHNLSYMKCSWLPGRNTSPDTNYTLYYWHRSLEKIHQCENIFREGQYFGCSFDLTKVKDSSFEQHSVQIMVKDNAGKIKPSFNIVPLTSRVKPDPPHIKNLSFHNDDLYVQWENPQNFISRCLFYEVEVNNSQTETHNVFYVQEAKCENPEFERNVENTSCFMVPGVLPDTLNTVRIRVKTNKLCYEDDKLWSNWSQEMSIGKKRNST
For data set [7] the target is unchanged. The source holds these as a separate data set.

Where two headings read alike, the source gives them in different places.

UniProt P24394, sequence (P24394 26-232): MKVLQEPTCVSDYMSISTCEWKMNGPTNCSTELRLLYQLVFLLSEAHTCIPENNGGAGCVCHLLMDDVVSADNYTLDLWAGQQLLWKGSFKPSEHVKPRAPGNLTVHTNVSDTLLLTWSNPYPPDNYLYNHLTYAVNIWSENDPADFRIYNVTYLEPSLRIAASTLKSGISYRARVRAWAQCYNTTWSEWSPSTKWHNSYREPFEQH
UniProt P31785, sequence (P31785 23-262): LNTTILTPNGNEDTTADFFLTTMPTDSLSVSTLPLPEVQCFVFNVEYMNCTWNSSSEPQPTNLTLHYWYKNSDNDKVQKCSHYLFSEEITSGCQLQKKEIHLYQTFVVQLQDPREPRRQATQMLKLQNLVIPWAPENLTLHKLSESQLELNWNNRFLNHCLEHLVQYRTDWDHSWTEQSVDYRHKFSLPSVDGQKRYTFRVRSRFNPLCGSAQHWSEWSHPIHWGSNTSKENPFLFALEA
UniProt P01589, sequence (P01589 22-240): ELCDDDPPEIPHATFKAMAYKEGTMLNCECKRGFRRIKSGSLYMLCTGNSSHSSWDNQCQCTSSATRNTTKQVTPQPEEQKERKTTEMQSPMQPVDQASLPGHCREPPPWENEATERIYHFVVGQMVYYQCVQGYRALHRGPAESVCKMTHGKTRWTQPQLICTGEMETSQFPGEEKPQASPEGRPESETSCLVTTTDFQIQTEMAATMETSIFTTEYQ

Take IL-2 (from UniProt P60568): the Kd in data set [1] is 1 nM; in data set [2] it was 10 nM; in data set [3] it was 700000 nM; in data set [4] it was 100 nM. IL-4 (from UniProt P05112): the Kd in data set [5] was 1 nM. Consider IL-4/IL-4Rα (from UniProt P05112), for which, in data set [6], the Kd was 487 nM. With IL-13 (from UniProt P35225), the Kd in data set [7] is 30 nM.
